Measurements taken from paper PMC2629585.

Tests used:
[1] = biological target: C-reactive protein (CRP), human, purified (Sigma) (human) (UniProt P02741); experiment: SPR; BIAcore 2000; POPC on HPA chip, 200 nM CRP injected and captured, then L-rFBG injected at 30 ul/min; normal condition: 50 mM Tris, 145 mM NaCl, 2.5 mM calcium, pH 7.4
[2] = biological target: C-reactive protein (CRP), human, purified (Sigma) (human) (UniProt P02741); experiment: SPR; BIAcore 2000; POPC on HPA chip, 200 nM CRP injected and captured, then L-rFBG injected at 30 ul/min; infection-inflammation condition: 50 mM MES, 145 mM NaCl, 2 mM calcium, pH 6.5

Sequence of C-reactive protein (CRP), human, purified (Sigma) (human) (P02741 19-224): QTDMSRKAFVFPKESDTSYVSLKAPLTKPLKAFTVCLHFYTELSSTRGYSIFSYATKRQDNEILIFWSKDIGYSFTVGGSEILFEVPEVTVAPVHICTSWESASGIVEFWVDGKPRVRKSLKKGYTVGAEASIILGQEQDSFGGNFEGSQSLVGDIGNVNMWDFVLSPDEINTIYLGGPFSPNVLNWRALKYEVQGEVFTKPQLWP

Kd [1]: 1110 nM
Kd [2]: 12.6 nM
Substance: recombinant FBG domain of L-ficolin (L-rFBG) (domain or fragment)
